From patent US20030092037A1, “Elk1 phosphorylation related gene” (priority 2001, published 2003)

B1: 4 (protein, listed as Homo sapiens)
chain: MSHEKSFLVSGDNYPPPNPGYPGGPQPPMPPYAQPPYPGAPYPQPPFQPSPYGQPGYPHGPSPYPQGGYPQGPYPQGGYPQGPYPQEGYPQGPYPQGGYPQGPYPQSPFPPNPYGQPQVFPGQDPDSPQHGNYQEEGPPSYYDNQDFPATNWDDKSIRQAFIRKVFLVLTLQLSVTLSTVSVFTFVAEVKGFVRENVWTYYVSYAVFFISLIVLSCCGDFRRKHPWNLVALSVLTASLSYMVGMIASFYNTEAVIMAVGITTAVCFTVVIFSMQTRYDFTSCMGVLLVSMVVLFIFAILCIFIRNRILEIVYASLGALLFTCFLAVDTQLLLGNKQLSLSPEEYVFAALNLYTDIINIFLYILTIIGRAKE
B2: 150 (protein, listed as Homo sapiens)
chain: MSSGKSARYNRFSGGPSNLPTPDVTTGTRMETTFGPAFSAVTTITKADGTSTYKQHCRTPSSSSTLAYSPRDEEDSMPPISTPRRSDSAISVRSLHSESSMSLRSTFSLPEEEEEPEPLVFAEQPSVKLCCQLCCSVFKDPVITTCGHTFCRRCALKSEKCPVDNVKLTVVVNNIAVAEQIGELFIHCRHGCRVAGSGKPPIFEVDPRGCPFTIKLSARKDHEGSCDYRPVRCPNNPSCPPLLRMNLEAHLKECEHIKCPHSKYGCTFIGNQDTYETHLETCRFEGLKEFLQQTDDRFHEMHVALAQKDQEIAFLRSMLGKLSEKIDQLEKSLELKFDVLDENQSKLSEDLMEFRRDASMLNDELSHINARLNMGILGSYDPQQIFKCKGTFVGHQGPVWCLCVYSMGDLLFSGSSDKTIKVWDTCTTYKCQKTLEGHDGIVLALCIQGCKLYSGSADCTIIVWDIQNLQKVNTIRAHDNPVCTLVSSHNVLFSGSLKAIKVWDIVGTELKLKKELTGLNHWVRALVAAQSYLYSGSYQTIKIWDIRTLDCIHVLQTSGGSVYSIAVTNHHIVCGTYENLIHVWDIESKEQVRTLTGHVGTVYALAVISTPDQTKVFSASYDRSLRVWSMDNMICTQTLLRHQGSVTALAVSRGRLFSGAVDSTVKVWTC
B3: 146 (protein, listed as Homo sapiens)
chain: MNHIVQTFSPVNSGQPPNYEMLKEEQEVAMLGAPHNPAPPTSTVIHIRSETSVPDHVVWSLFNTLFMNTCCLGFIAFAYSVKSRDRKMVGDVTGAQAYASTAKCLNIWALILGIFMTILLVIIPVLVVQAQR
B4: 148 (protein, listed as Homo sapiens)
chain: MNHIVQTFSPVNSGQPPNYEMLKEEQEVAMLGAPHNPAPPTSTVIHIRSETSVPDHVVWSLFNTLFMNTCCLGFIAFAYSVKSRDRKMVGDVTGAQAYASTAKCLNIWALILGIFMTILLIIIPVLVVQAQR
B5: 152 (protein, listed as Homo sapiens)
chain: MAPAGCCCCCCFWGGAVAAAGAARRVLLLLLLGVLSAGLRPGALATEHYSPLSLLKQELQHRQQQEAPAGGGGCSPQSGDWGDQYSAECGESSFLNFHDSDCEPKGSSPCDSLLSLNTEKILSQAKSIAEQKRFPFATDNDSTNEELAIAYVLIGSGLYDEAIRHFSTMLQEEPDLVSAIYGRGIAYGKKGLHDIKNAELALFELSRVITLEPDRPEVFEQRAEILSPLGRINEAVNDLTKAIQLQPSARLYRHRGTLYFISEDYATAHEDFQQSLELNKNQPIAMLYKGLTFFHRGLLKEAIESFKEALKQKVDFIDAYKSLGQAYRELGNFEAATESFQKALLLNQNHVQTLQLRGMMLYHHGSLQEALKNFKRCLQLEPYNEVCQYMKGLSHVAMGQFYEGIKAQTKVMLNDPLPGQKASPEYLKVKYLREYSRHLHAHLDTPLTEYNIDVDLPGSFKDHWAKNLPFLIEDYEEQPGLQPHIKDVLHQNFESYKPEVQELICVADRLGSLMQYETPGFLPNKRIHRAMGLAALEVMQAVQRTWTNSKVRMNGKTRLMQWRDMFDIAVKWRRIADPDQPVLWLDQMPARSLSRGFNNHINLIRGQVINMRYLEYFEKILHFIKDRILVYHGANNPKGLLEVREALEKVHKVEDLLPIMKQFNTKTKDGFTVNTKVPSLKDQGKEYDGFTITITGDKVGNILFSVETQTTEERTQLYHAEIDALYKDLTAKGKVLILSSEFGEADAVCNLILSLVYYFYNLMPLSRGSSVIAYSVIVGALMASGKEVAGKIPKGKLVDFEAMTAPGSEAFSKVAKSWMNLKSISPSYKTLPSVSETFPTLRSMIEVLNTDSSPRCLKKL
B6: 132 (protein, listed as Mus musculus)
chain: MAGRTMQAARCPTDELSLSNCAVVNEKDFQSGQHVMVRTSPNHKHIFTLRTHPSVVPGCIAFSLPQRKWAGLSIGQDIEVALYSFDKAKQCIGTMTIEIDFLQKKNIDSNPYDTDKMAAEFIQQFNNQAFSVGQQLVFSFNDKLFGLLVKDIEAMDPSILKGEPASGKRQKIEVGLVVGNSQVAFEKAENSSLNLIGKAKTKENRQSIINPDWNFEKMGIGGLDKGFSDIFRRAFASRVFPPEIVEQMGCKHVRGILLYGPPGCGKTLLARQIGKMLNAREPKVVNGPEILNKYVGESEANIRKLFADAEEEQRRLGANSGLHIIIFDEIDAICKQRGSMAGSTGVHDTVVNQLLSKIDGVEQLNNILVIGMTNRPDLIDEALLRPGRLEVKMEIGLPDEKGRLQILHIHTARMRGHQLLSADVDIKELAVETKNFSGAELEGLVRAAQSTAMNRHIKASTKVEVDMEKAESLQVTRGDFLASLENDIKPAFGTNQEDYASYIMNGIIKWGDPVTRVLDDGELLVQQTKNSDRTPLVSVLLEGPPHSGKTALAAKIAEESNFPFIKICSPDKMIGFSETAKCQAMKKIFDDAYKSQLSCVVVDDIERLLDYVPIGPRFSNLVLQALLVLLKKAPPQGRKLLIIGTTSRKDVLQEMEMLNAFSTTIHVPNIATGEQLLEALELLGNFKDKERTTIAQQVKGKKVWIGIKKLLMLIEMSLQMDPEYRVRKFLALMREEGASPLDFD
B7: 116 (protein, listed as Mus musculus)
chain: MSSAKSARYDRFSGGPANLPSSDSSGTRMETTFGPTFSTVTTITKAADGTGTYKQHRRTPSSSSTLAYSPRDEEDGMEPLVFAEQPSVKLCCQLCCSVFKDPVITTCGHTFCRRCALKSEKCPVDNAKLTVVVNNIAVAEQIGELFIHCRHGCHAAGTGKPGVFEVDPRGCPFTIKLSARKDHESSCDYRPVRCPNNPSCPPLLKMNLEAHLKECEHIKCPHSKYGCTFIGNQDTYETHLETCRFEGLKEFLQQSDDRFHEMHVALAQKDQEIAFLRSMLGKLSEKINQLEKSLELKFDVLDENQSKLSEDLMEFRRDASMLNDELSHINARLNMGILGSYDPQQIFKCKGTFVGHQGPVWCLCVYSMGDLLFSGSSDKTIKVWDTCTTYKCQKTLEGHDGIVLALCIQGCKLYSGSADCTIIVWDIQNLQKVNTIRAHDNPVCTLVSSHNMLFSGSLKAIKVWDIVGTELKLKKELTGLNHWVRALVAAQSYLYSGSYQTIKIWDIRTLDCIHVLQTSGGSVYSIAVTNHHIVCGTYENLIHVWDIESKEQVRTLTGHVGTVYALAVISTPDQTKVFSASYDRSLRVWSMDNMICTQTLLRHQGSVTALAVSRGRLFSGAVDSTVKVWTC
B8: 122 (protein, listed as Mus musculus)
chain: MAPAGCGCGCSGSLGAAVVRPLLLLLGALACVRATEHYSPLSLLKQELQHRQQQEAPAGGGCPQSGDWADQYPECESSFLNFHESDCELRGSAPCDSLLSLNTEKILSQAKSIAEQKRFPFATDNDSTNEELAIAYVLVGSGLYDEAIRHFSTMLQEAIEAFKEALKQKVDFIDAYKSLGQAYRELGNFDAATESFQKALLLNQNHVQTQQLRGMMLYHHGSLQEALKNFKRCLQLEPYNELCQYMKGLSHVAMGQFYEGIKAQTKVMLNDPLPGQKASPEYLRVKYLREYSRYLHAHLDTPLTEYNIDSDLPGSFKDHWAKNLPFLIDGYEEQPGLQPHIRDVLHQNFEGYKPEVQELICVADRLGSLMQYETPGFLPNKRIHRAMGLAALEVMQAVHRTWTNSKVRMNGKTRLLQWRDMFDIAVKWRRIADPDQPVLWLDQMPAPSLSRGFNNHINLIRGQVINMRYLEYFEKILHFIKDRILVYHGANNPKGLLEVREALEKVHKVEDLLPIMKQFNTKTKDGFTVNTKVPSLKDQGKEYDGFTITITGDKVGNILFSVETQTTEERTQLYHAEIDALYKDLTAKGKVLTLSAEFGEADAVCNLILSLVYYFYNLMPLSRGSSVIAYSVIVGALMASGKEVAGKIPKGKLVDFEAMTAPGSEAFSKIAKSWMNLKSISPSYKTLPSVSETFPTLRSMIEVLNTDSTPRCLKKL

System: MAP kinase cascade activation
Assay: Reporter activity reflecting MAP kinase cascade activation, corrected using an internal control (Elk1-GAL4 luciferase reporter in 293-EBNA cells)
Type: cell-based, human
Settings: for Reporter activity corrected with internal control, as a factor of null vector (S/B value): 293-EBNA cells, 24 hours; for Dependence of corrected reporter activity on amount of expression plasmid: plasmid 12.5 ng, 25 ng, 50 ng and 100 ng
Method: (in the presence of 5% CO2). […] The method used for introduction was in accordance with the attached protocol. After culturing for 24 hours at 37° C., reporter activity (firefly luciferase acitivity), which reflects MAP kinase cascade activation, and reporter activity being the internal control (sea pansy luciferase) were measured using Picagene Dual (purchased from Toyo Ink Manufacturing) in accordance with the manufacturer's instructions.
Luciferase activity was measured with Perkin Elmer's Wallac ARVOTMST 1420 MULTILABEL COUNTER.
Reporter activity where an expression plasmid comprising the above gene was introduced, which reflects MAP kinase cascade activation corrected with internal control reporter activity, is shown in Table 1, which is expressed as a factor of the same reporter activity where a null vector was introduced (S/B value).

[1] = 12.5 ng/well expression plasmid

| Molecule | Reporter activity corrected with internal control, as a factor of null vector (S/B value) (25 ng/well expression plasmid) | Reporter activity corrected with internal control, as a factor of null vector (S/B value) (50 ng/well expression plasmid) | Reporter activity corrected with internal control, as a factor of null vector (S/B value) (100 ng/well expression plasmid) | Dependence of corrected reporter activity on amount of expression plasmid | Reporter activity corrected with internal control, as a factor of null vector (S/B value) [1] |
| --- | --- | --- | --- | --- | --- |
| B1 | 2.1 | 4.1 | 4.5 | increases that were dependent on the amount of expression plasmid |  |
| B2 | 2.8 | 1.7 |  | increases that were dependent on the amount of expression plasmid | 6.7 |
| B3 | 3.5 | 5.6 | 8.8 | increases that were dependent on the amount of expression plasmid |  |
| B4 | 1.6 | 3.4 | 5.0 | increases that were dependent on the amount of expression plasmid |  |
| B5 |  |  |  | increases that were dependent on the amount of expression plasmid |  |
| B6 | 10.1 | 16.6 |  | increases that were dependent on the amount of expression plasmid | 5.6 |
| B7 | 17.3 | 19.9 |  | increases that were dependent on the amount of expression plasmid | 11.9 |
| B8 | 2.9 | 6.8 |  | increases that were dependent on the amount of expression plasmid | 1.8 |
